From patent US20100076060A1

Target: OX40 (CD134) on mouse lymph node T cells (mouse) (UniProt P47741)
Assay: cell-based or functional assay

interferon-gamma secretion (ELISA), after subtracting background of the negative control: 15 pg/mL
B1: OX40 agonistic antibody (OX86) (antibody, from another filing, V domains shown)
VH: QVQLKESGPGLVQPSQTLSLTCTVSGFSLTGYNLHWVRQPPGKGLEWMGRMRYDGDTYYNSVLKSRLSISRDTSKNQVFLKMNSLQTDDTAIYYCTRDGRGDSFDYWGQGVMVTVSS
VL: DIVMTQGALPNPVPSGESASITCRSSQSLVYKDGQTYLNWFLQRPGQSPQLLTYWMSTRASGVSDRFSGSGSGTYFTLKISRVRAEDAGVYYCQQVREYPFTFGSGTKLEIK
